SuRe binding (RU) and ECM binding ratio (standard = 1) data for 23 molecules are collected here from patent US20210388110A1.

To fix the notation:
B1: TR01H096-E2702GsKsc/L0011-k0 (antibody, human IgG4 S228P, kappa, N297A, V domains shown)
VH: QVQLVESGGGLVQPGRSLRLSCAASGFTFSNAWMHWVRQAPGKGLEWVAQIKDKSQNYAGYYAESVKGRFTISRDDSKNSLYLQMNSLKTEDTAVYYCRYVHYAAGYGVDAWGQGTTVTVSS
VL: DIVMTQSPLSLPVTPGEPASISCRSSQPLVHSNRNTYLHWYQQKPGQAPRLLIYKVSNRFSGVPDRFSGSGSGTDFTLKISRVEAEDVGVYYCGQGTQVPYTFGQGTKLEIKR
B2: TR01H106-E2702GsKsc/L0011-k0 (antibody, human IgG4 S228P, kappa, N297A, V domains shown)
VH: B1 VH with G60T, Y62P
VL: B1 VL
B3: TR01H105-E2702GsKsc/L0011-k0 (antibody, human IgG4 S228P, kappa, N297A, V domains shown)
VH: B1 VH with G60T, Y62L
VL: B1 VL
B4: TR01H097-E2702GsKsc/L0011-k0 (antibody, human IgG4 S228P, kappa, N297A, V domains shown)
VH: B1 VH with G60L
VL: B1 VL
B5: TR01H109-E2702GsKsc/L0011-k0 (antibody, human IgG4 S228P, kappa, N297A, V domains shown)
VH: B1 VH with G60T, Y62V
VL: B1 VL
B6: TR01H101-E2702GsKsc/L0011-k0 (antibody, human IgG4 S228P, kappa, N297A, V domains shown)
VH: B1 VH with G60V
VL: B1 VL
B7: TR01H108-E2702GsKsc/L0011-k0 (antibody, human IgG4 S228P, kappa, N297A, V domains shown)
VH: B1 VH with G60T, Y62T
VL: B1 VL
B8: TR01H102-E2702GsKsc/L0011-k0 (antibody, human IgG4 S228P, kappa, N297A, V domains shown)
VH: B1 VH with G60T, Y62F
VL: B1 VL
B9: TR01H098-E2702GsKsc/L0011-k0 (antibody, human IgG4 S228P, kappa, N297A, V domains shown)
VH: B1 VH with G60P
VL: B1 VL
B10: TR01H107-E2702GsKsc/L0011-k0 (antibody, human IgG4 S228P, kappa, N297A, V domains shown)
VH: B1 VH with G60T, Y62Q
VL: B1 VL
B11: TR01H099-E2702GsKsc/L0011-k0 (antibody, human IgG4 S228P, kappa, N297A, V domains shown)
VH: B1 VH with G60Q
VL: B1 VL
B12: TR01H104-E2702GsKsc/L0011-k0 (antibody, human IgG4 S228P, kappa, N297A, V domains shown)
VH: B1 VH with G60T, Y62I
VL: B1 VL
B13: TR01H103-E2702GsKsc/L0011-k0 (antibody, human IgG4 S228P, kappa, N297A, V domains shown)
VH: B1 VH with G60T, Y62G
VL: B1 VL
B14: TR01H095-E2702GsKsc/L0011-k0 (antibody, human IgG4 S228P, kappa, N297A, V domains shown)
VH: B1 VH with G60F
VL: B1 VL
B15: TR01H040-E2702GsKsc/H0610-E2704sEpsc/L0208-k0 (bispecific antibody, human IgG4 S228P, kappa, N297A)
heavy 1: QVQLVESGGGLVQPGRSLRLSCAASGFTFSNAWMHWVRQAPGKGLEWVAQIKDKSQNYATYYAESVKGRFTISRADSKNSIYLQMNSLKTEDTAVYYCRYVHYSASYGVDAWGQGTTVTVSSASTKGPSVFPLAPCSRSTSESTAALGCLVKDYFPEPVTVSWNSGALTSGVHTFPAVLQSSGLYSLSSVVTVPSSSLGTKTYTCNVDHKPSNTKVDKRVESKYGPPCPPCPAPEFRGGPKVFLFPPKPKDTLMISRTPEVTCVVVDVSQEDPEVQFNWYVDGVEVHNAKTKPREEQFASTYRVVSVLTVLHQDWLNGKEYKCKVSNKGLPSSIEKTISKAKGQPREPQVYTLPPSQKEMTKNQVSLTCLVKGFYPSDIAVEWESNGQPENNYKTTPPVLDSDGSFFLYSKLTVDKSRWQEGNVFSCSVMHEALHNRYTQKSLSLSP
heavy 2: QVQLVQSGAEVKKPGASVKVSCKASGYTFTDYEMHWIRQPPGQGLEWIGAIDGKTPDTAYSQKFKGRVTLTADKSTSTAYMELSSLTSEDTAVYYCTRFYSYTYWGQGTLVTVSSASTKGPSVFPLAPCSRSTSESTAALGCLVKDYFPEPVTVSWNSGALTSGVHTFPAVLQSSGLYSLSSVVTVPSSSLGTQTYTCNVDHKPSNTKVDKRVESKYGPPCPPCPAPEFRGGPKVFLFPPKPKDTLMISRTPEVTCVVVDVSQEDPEVQFNWYVDGVEVHNAKTKPREEQFASTYRVVSVLTVLHQDWLNGKEYKCKVSNKGLPSSIEKTISKAKGQPREPQVYTLPPSQEEMTKNQVSLTCLVKGFYPSDIAVEWESNGQPENNYKTTPPVLDSDGSFFLYSKLTVDKSRWQEGNVFSCSVMHEALHNHYTQESLSLSP
light: DIVMTQSPLSLPVTPGEPASISCRSSQSPVHSNRNTYLHWYQQKPGQAPRLLIYKVSNRFWGVPDRFSGSGSGTDFTLKISRVEAEDVGVYYCYQGTQVPYTFGQGTKLEIKRTVAAPSVFIFPPSDEQLKSGTASVVCLLNNFYPREAKVQWKVDNALQSGNSQESVTEQDSKDSTYSLSSTLTLSKADYEKHKVYACEVTHQGLSSPVTKSFNRGEC
B16: TR01H040-E2702GsKsc/H0610-E2704sEpsc/L0204-k0 (bispecific antibody, human IgG4 S228P, kappa, N297A)
heavy 1: B15 heavy 1
heavy 2: B15 heavy 2
light: B15 light with W61R, Y94G
B17: TR01H113-E2702GsKsc/GCH094-E2704sEpsc/L0011-k0 (bispecific antibody, human IgG4 S228P, kappa, N297A)
heavy 1: B15 heavy 1 with L11V, R16G, Y62V, S104A, S106G, A111I
heavy 2: B15 heavy 2 with K19T, I37V, P40A, Q43E, I48M, K54E, Q62E
light: B15 light with S28P, P29L, W61S, Y94G
B18: TR01H113-E2702GsKsc/GCH065-E2704sEpsc/L0011-k0 (bispecific antibody, human IgG4 S228P, kappa, N297A)
heavy 1: B15 heavy 1 with L11V, R16G, Y62V, S104A, S106G, A111I
heavy 2: B15 heavy 2 with K19T, Q43E, K54P, Q62E
light: B15 light with S28P, P29L, W61S, Y94G
B19: TR01H040-E2702GsKsc/H0610-E2704sEpsc/L0209-k0 (bispecific antibody, human IgG4 S228P, kappa, N297A)
heavy 1: B15 heavy 1
heavy 2: B15 heavy 2
light: B15 light with L38I, W61S
B20: TR01H082-E2702GsKsc/GCH065-E2704sEpsc/L0011-k0 (bispecific antibody, human IgG4 S228P, kappa, N297A)
heavy 1: B15 heavy 1 with A75D, I81L, S104A, S106G
heavy 2: B15 heavy 2 with K19T, Q43E, K54P, Q62E
light: B15 light with S28P, P29L, W61S, Y94G
B21: TR01H040-E2702GsKsc/H0610-E2704sEpsc/L0206-k0 (bispecific antibody, human IgG4 S228P, kappa, N297A)
heavy 1: B15 heavy 1
heavy 2: B15 heavy 2
light: B15 light with W61S
B22: TR01H067-E2702GsKsc/GCH054-E2704sEpsc/L0212-k0 (bispecific antibody, human IgG4 S228P, kappa, N297A)
heavy 1: B15 heavy 1 with A75D, I81L, S104A
heavy 2: B15 heavy 2 with K19T, Q43E, K54E, Q62E
light: B15 light with S25P, W61S
B23: TR01H040-E2702GsKsc/H0610-E2704sEpsc/L0211-k0 (bispecific antibody, human IgG4 S228P, kappa, N297A)
heavy 1: B15 heavy 1
heavy 2: B15 heavy 2
light: B15 light with S28P, W61S

Numbering of substitutions follows the chain as printed.

One assay concerns the target Mab Select SuRe Ligand. Nature of the assay: SPR (Biacore T200), SuRe ligand on CM5 chip, antibody 5 ug/mL.
Turning to B1, the SuRe binding (RU) worked out at 2.7 RU.
In turn, B2 displayed a SuRe binding (RU) of 0 RU.
The same measure, in the same setting: next, B3: 0.8 RU; B4: 0.1 RU.
On to B5, for which the SuRe binding (RU) stood at 2.2 RU.
Same read-out and setting: next, B6: 0.5 RU.
On the same count and under the same terms, as for B7, the figure is 0.4 RU.
Still for that read-out and setting: next, B8: 0.5 RU; B9: 1.6 RU.
Consider B10, for which the SuRe binding (RU) came to 1.4 RU.
The same measure, in the same setting: next, B11: 0.6 RU.
The same measure, in the same setting: as for B12, the figure is 1 RU; as for B13, 1.4 RU; as for B14, -0.2 RU.

The target in another assay is extracellular matrix (BD Matrigel). Nature of the assay: ECL on Matrigel-coated plate, relative to MRAH-G1d/MRAL-k0.
As for B15, the ECM binding ratio (standard = 1) amounted to 50.4.
Same read-out and setting: as for B16, the figure is 4.4; as for B17, 1.6; as for B18, 2.5.
With B19, the ECM binding ratio (standard = 1) was 7.4.
For the molecule B20, the ECM binding ratio (standard = 1) stood at 1.7.
As to B21, the ECM binding ratio (standard = 1) stood at 15.4.
Still for that read-out and setting: next, B22: 3.3; B23: 15.5.
